Laboratory results reported in US20240327504A1 (MABLOC, published 2024).

Biological target: SARS-CoV-2 Spike, WT (SARS-CoV-2, UniProt P0DTC2 14-1273)
Test: cell-based or functional assay

B1: MR22950 antibody (antibody, V domains shown)
VH: QLQLQESGPGLVKPSEPLSLTCAVSGGFIGTNWWTWIRQPPGKGLEWIGRISGSVGSTSYNPSLKSRVTISRDTSKNQFSLNLNSLTAADTAVYYCAREGRLDTLDWGQGVLVIVSS
VL: QSVLTQPPSASEAARKSVTISCSGSSSNIGSYSVSWYQQFPGTPPKLLIYFNDQRASGVSDRFSGSKSGTSASLAISGLQTEDEADYYCAGWDDSLNGVLFGGGTRLTVLG
- Neut50: 6 ng/mL
